Reference: US20040038888A1 (priority 2002, published 2004)

Legend:
ADCYAP1R1 = molecular target: T1, ADCYAP1R1 (Homo sapiens, UniProt P41586); details: unlike PACAP, which binds ADCYAP1R1 and VIPR1 & 2; Moro and Lerner 1997; cited from earlier work
T1 sequence (P41586 21-468): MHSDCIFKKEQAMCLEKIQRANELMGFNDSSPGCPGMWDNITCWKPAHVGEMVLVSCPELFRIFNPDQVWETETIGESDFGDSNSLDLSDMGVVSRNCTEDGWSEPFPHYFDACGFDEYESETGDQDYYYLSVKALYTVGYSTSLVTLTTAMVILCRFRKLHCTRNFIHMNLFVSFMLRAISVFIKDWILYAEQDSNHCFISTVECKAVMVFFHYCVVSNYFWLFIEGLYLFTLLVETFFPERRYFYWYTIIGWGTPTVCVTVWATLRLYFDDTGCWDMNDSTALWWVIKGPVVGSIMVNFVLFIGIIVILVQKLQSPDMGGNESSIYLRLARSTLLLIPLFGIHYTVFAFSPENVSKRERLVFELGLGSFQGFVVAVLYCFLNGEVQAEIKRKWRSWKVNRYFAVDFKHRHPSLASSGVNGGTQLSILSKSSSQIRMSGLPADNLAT

[1] = system: mouse adult neural stem cells; experiment: Intracellular ATP assay, adult mouse NSC, non-adherent culture; assay type: cell-based; details: varying concentrations, non-adherent conditions, 3 days, relative to control, dose-dependent
Procedure: The anterior lateral wall of the lateral ventricle of 5-6 week old mice was enzymatically dissociated in 0.8 mg/ml hyaluronidase and 0.5 mg/ml trypsin in DMEM containing 4.5 mg/ml glucose and 80 units/ml DNase at 37° C. for 20 min. The cells were gently triturated and mixed with three volumes of Neurosphere medium (DMEM/F12, B27 supplement, 12.5 mM HEPES pH7.4) containing 20 ng/ml EGF (unless otherwise stated), 100 units/ml penicillin and 100μg/ml streptomycin. After passing through a 70 μm strainer, the cells were pelleted at 160×g for 5 min. The supernatant was subsequently removed and the cells resuspended in Neurosphere medium supplemented as above, plated out in culture dishes and incubated at 37° C. Neurospheres were ready to be split approximately 7 days after plating.
To split neurosphere cultures, neurospheres were collected by centrifugation at 160×g for 5 min. […]
Mouse neurospheres, cultured as described above, from passage 2, were seeded in DMEM/F12 supplemented with B27 into a 96-well plate as single cells (10000 cells/well) to the substances to be measured were added at the concentrations indicated. After 3 days incubation, intracellular ATP was measured using the ATP-SL kit from BioThema, Sweden, according to the manufacturer's instructions. […]

B1: Maxadilan: 63 amino acid peptide from salivary gland extracts of the sand fly; specific ADCYAP1R1 agonist (SEQ ID NO: 13) (peptide, listed as Mus musculus)
chain: CDATCQFRKAIEDCRKKAHHSDVLQTSVQTTATFTSMDTSQLPGSGVFKECMKEKAKEFKAGK
In the case of B1, the binding specificity (ADCYAP1R1) is listed as “binds specifically to only ADCYAP1R1” and the “intracellular ATP levels, and hence cell number” value [1] is listed as “statistically significant increase in intracellular ATP levels”.
